# Article PMC7672459, “Detection of genomic G-quadruplexes in living cells using a small artificial protein”
# T1: G4P (artificial (RHAU-derived), UniProt Q9H2U1 53-75)
# T1 chain: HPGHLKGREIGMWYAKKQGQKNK
# Assays:
# G4P [1] = molecular target: T1, G4P; assay: EMSA; K+; only 20% of DNA bound at saturation; low-nM Kd, number only in figure; EMSA: 20 mM Tris-HCl pH 7.4, 75 mM KCl, 1 mM EDTA, 0.4 mg/ml BSA, 10 nM DNA, 4 C (or 37 C), 1 h; dsDNA with 30% PEG 200; pull-down: 20 mM Tris-HCl pH 7.4, 150 mM KCl, 1 mM EDTA, 0.5% Triton X-100, 4 C; details: protein: recombinant, tags: N-terminal HIS, C-terminal GTGSGA-3xFLAG, label: 5' FAM
# G4P [2] = molecular target: T1, G4P; assay: competition; competitor of FAM c-KIT/KRAS G4; EMSA: 20 mM Tris-HCl pH 7.4, 75 mM KCl, 1 mM EDTA, 0.4 mg/ml BSA, 10 nM DNA, 4 C (or 37 C), 1 h; dsDNA with 30% PEG 200; pull-down: 20 mM Tris-HCl pH 7.4, 150 mM KCl, 1 mM EDTA, 0.5% Triton X-100, 4 C; details: protein: recombinant; tags: N-terminal HIS; C-terminal GTGSGA-3xFLAG; label: 5' FAM; parallel G4
# G4P [3] = molecular target: T1, G4P; assay: EMSA; K+; two distinct Kd values, numbers only in figure; EMSA: 20 mM Tris-HCl pH 7.4, 75 mM KCl, 1 mM EDTA, 0.4 mg/ml BSA, 10 nM DNA, 4 C (or 37 C), 1 h; dsDNA with 30% PEG 200; pull-down: 20 mM Tris-HCl pH 7.4, 150 mM KCl, 1 mM EDTA, 0.5% Triton X-100, 4 C; details: protein: recombinant; tags: N-terminal HIS; C-terminal GTGSGA-3xFLAG; label: 5' FAM; parallel broken-strand G4
binder,measurement,setting,value
GGGGCCGGGGCCGGGGCCGGGGCC (structured_DNA) [C9orf72],binding result,"G4P [1]; antiparallel G4, hairpin in equilibrium",binds
AGGGCGGTGTGGGAAGAGGGAAGAGGGGGAGG (structured_DNA) [KRAS],binding result,G4P [2],binds
AAGGGAGGGCGGCGGGGCAGGGA (structured_DNA) [PDGFR-beta],binding result,G4P [3],binds
TTCGGGCGGGCGCGAGGGAGGGTTTT (structured_DNA) [c-KIT],binding result,G4P [2],binds
GGTTAGGGTTAGGGTTAGGGTTAGGGTTAG (structured_DNA) [Tel],binding result,G4P [1]; mixed parallel/antiparallel G4,binds
